Test system: Bevacizumab (Avastin; anti-VEGF humanized monoclonal antibody) (Homo sapiens (humanized antibody)?)
Conditions: quartz crystal microbalance (AFFINIX Q8), velocity analysis; Bevacizumab immobilized on sensor; phosphate buffer (DPBS); aptamer 1.48-2.91 uM; sequence …

“CCGTGTGGTGGGGGTTGGGGGTTGTCGTTCGCCG [Bevacizumab DNA aptamer SEQ ID NO: 1]” was tested, and the Kd was 9.1 µM.

Reference: US20190284560
